Like-named read-outs stand apart in the source and are kept apart here.
Legend:
[1] = tested on: HEK293/hPRLR (293/hPRLR) cells; test: Cell viability (cell kill) assay; type: cell-based, human; conditions: 3 days
Source text: (§1) PRLR-overexpressing cells, including HEK293, PC3, MCF7 and NCI-N87, were generated to assess the ability of anti-PRLR conjugated antibodies to reduce cell viability. For comparative purposes, PC3 and T47D cells with overexpressed ErbB2 were also generated, as well as an MCF7 cell line over-expressing both hPRLR and hErbB2. Briefly, Lipofectamine® 2000-mediated transfection methodology was utilized to generate HEK293 cells expressing human PRLR (HEK293/hPRLR) or human ErbB2 (HEK293/hErbB2). Lipofectamine LTX with Plus Reagent was used to generate PC3 cells expressing human PRLR (PC3/hPRLR) or human ErbB2 (PC3/hErbB2). Lentiviral-mediated transduction was utilized to generate MCF7 cells expressing human PRLR (MCF7/hPRLR), NCI-N87 cells expressing human PRLR (NCI-N87/hPRLR), T47D cells over-expressing human ErbB2 (T47D/hErbB2), and MCF7 cells expressing both human PRLR and human ErbB2 (MCF7/hPRLR/hErbB2). All lines were selected for at least two weeks in complete growth media plus appropriate selection reagents. Stably expressing populations were enriched for PRLR expression via FACS using the anti PRLR antibody Control I.
(§2) Next, the ability of anti-PRLR-DM1 antibody-drug conjugates (i.e., anti-PRLR antibodies conjugated to DM1 via a non-cleavable linker [SMCC]) to reduce cell viability was determined using in vitro cell based assays. Cells were seeded in PDL-coated 96 well plates at 1500 to 10000 cells per well in complete growth media and allowed to grow overnight. For cell viability curves, ADCs or free DM1 (as the methyl disulfide derivative DM1-SMe) were added to the cells at final concentrations ranging from 500 nM to 5 pM and incubated for 3 days. The 293, PC3 and T47D cells were incubated with CCK8 (Dojindo, Rockville, Md.) for the final 1-3 hours and the absorbance at 450 nm (OD450) was determined on a Flexstation3 (Molecular Devices, Sunnyvale, Calif.). MCF7 cells were treated with Hoechst 33342 nuclear stain while being fixed with 4% formaldehyde. Images were acquired on the ImageXpress micro XL (Molecular Devices, Sunnyvale, Calif.) and nuclear counts were determined via Columbus image analysis software (Perkin Elmer, Shelton, Conn.). Background OD450 values (PC3, 293, and T47D) or nuclear counts (MCF7) from digitonin (40 nM) treated cells was subtracted from all wells and viability was expressed as a percentage of the untreated controls. IC50 values were determined from a four-parameter logistic equation over a 10-point response curve (GraphPad Prism).

[2] = tested on: PC3 cells; test: Cell viability (cell kill) assay; type: cell-based
Procedure, shortened: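 PC3 and PC3/hPRLR (lipofection-generated, FACS-enriched for PRLR) cells exposed 3 days to anti-PRLR ADCs or free DM1-SMe, 500 nM to 5 pM. Viability by CCK8 OD450, digitonin background subtracted, as % of untreated; IC50 from four-parameter fit of 10-point curves.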

[3] = tested on: MCF7 (MCF7/ATCC) cells; test: Cell viability (cell kill) assay, nuclear counts; type: cell-based
Procedure, shortened: (§3)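 Anti-PRLR ADCs or free DM1-SMe were added at 500 nM to 5 pM final to cells seeded overnight and were incubated 3 days. MCF7 lines were fixed with 4% formaldehyde plus Hoechst 33342, and nuclei were counted by imaging, with digitonin […] background subtracted. Viability was expressed as % of untreated cells, and IC50 was obtained from a 4-parameter fit of a 10-point curve.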

[4] = tested on: MCF7/hPRLR (MCF7/PRLR) cells; test: Cell viability (cell kill) assay, nuclear counts; type: cell-based, human
Procedure, shortened: as §3

[5] = tested on: T47D cells; test: Cell viability (cell kill) assay; type: cell-based
Procedure, shortened: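 T47D cells grown overnight, then exposed 3 days to anti-PRLR ADCs (DM1 via non-cleavable SMCC linker, or other maytansinoid toxins) or free DM1-SMe, 500 nM to 5 pM. Viability by CCK8 OD450, digitonin background subtracted, as % of untreated; IC50 from 10-point four-parameter fit. PRL (15 nM) co-incubation tested separately.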

[6] = tested on: NCI-N87 cells; test: Cell viability (cell kill) assay; type: cell-based; conditions: Table 17
Source text: as §1, §2
The potency of anti-PRLR conjugated antibodies compared with a similarly conjugated antibody to the co-expressed ErbB2 cell surface target was also assessed. […]

[7] = tested on: MCF7/hPRLR/hErbB2 cells; test: Cell viability (cell kill) assay; type: cell-based, human; conditions: MCF/PRLR + ErbB2; Table 17
Source text: as §1, §2
(§4) The potency of anti-PRLR conjugated antibodies compared with a similarly conjugated antibody to the co-expressed ErbB2 cell surface target was also assessed. Both PRLR and ErbB2 are expressed in a majority of breast cancers, and anti-ErbB2 antibodies conjugated to DM1 have shown clinical efficacy in targeting ErbB2 (+) breast cancer (Hurvitz et al; 2013).

[8] = tested on: NCI-N87/hPRLR cells; test: Cell viability (cell kill) assay; type: cell-based, human; conditions: NCI-N87/PRLR; Table 17
Source text: as §1, §2, §4

[9] = tested on: PC3/hErbB2 cells; test: Cell viability (cell kill) assay; type: cell-based, human; conditions: PC3/ErbB2; Table 15
Source text: as §1, §2, §4

[10] = tested on: T47D/hErbB2 cells; test: Cell viability (cell kill) assay; type: cell-based, human; conditions: T47D/ErbB2; Table 16
Source text: as §1, §2, §4

[11] = tested on: SK-BR-3 cells; test: Cell viability (cell kill) assay; type: cell-based; conditions: Table 16
[12] = 293/PRLR, Table 11, read-out: IC50
[13] = T47D, Table 12, 3 days, read-out: IC50

B1: H1H6958N2-DM1: anti-PRLR antibody H1H6958N2 conjugated to DM1 through an SMCC linker (conjugate)
VH: QVQLVESGGGVVQPGRSLRLSCGASGFTFRNYGMQWVRQGPGKGLEWVTLISFDGNDKYYADSVKGRFTISRDNSKNTLFLQMNSLRTEDTAVYYCARGGDFDYWGQGTLVTVSS
VL: DIQMTQSPSSLSASVGDRVTITCRASQDIRKDLGWYQQKPGKAPKRLIYAASSLHSGVPSRFSGSGSGTEFTLTISSLQPEDFATYYCLQHNSYPMYTFGQGTKLEIK
**Q.** For B1, which “% Kill” value ([1]; 293/PRLR, Table 11) is on record?
**A.** 95%

**Q.** What about the IC50 [1, 12] of the same molecule?
**A.** 0.1 nM

**Q.** What about the “% Kill” value ([2]; Table 11, 3 days) of the same molecule?
**A.** 83%

**Q.** What about the IC50 ([2]; Table 11, 3 days) of the same molecule?
**A.** 150 nM

**Q.** What about the “% Kill” value ([3]; MCF7/ATCC, Table 18) of the same molecule?
**A.** 72%

**Q.** And the IC50 ([3]; MCF7/ATCC, Table 18)?
**A.** 90 nM

**Q.** What about the “% Kill” value ([3]; MCF7/ATCC, Table 20) of the same molecule?
**A.** 70%

**Q.** And the IC50 ([3]; MCF7/ATCC, Table 20)?
**A.** 70 nM

**Q.** And the “% Kill” value ([3]; MCF7, Table 12, 3 days)?
**A.** 77%

**Q.** And the IC50 ([3]; MCF7, Table 12, 3 days)?
**A.** 100 nM

**Q.** What about the “% Kill” value ([4]; Table 12, 3 days) of the same molecule?
**A.** 77%

**Q.** And the IC50 ([4]; Table 12, 3 days)?
**A.** 0.19 nM

**Q.** And the “% Kill” value ([4]; Table 18)?
**A.** 83%

**Q.** What about the IC50 ([4]; Table 18) of the same molecule?
**A.** 0.2 nM

**Q.** And the “% Kill” value ([4]; Table 20)?
**A.** 80%

**Q.** And the IC50 ([4]; Table 20)?
**A.** 0.2 nM

**Q.** What about the “% Kill” value ([5]; T47D, Table 12, 3 days) of the same molecule?
**A.** 71%

**Q.** And the IC50 [5, 13]?
**A.** 1.34 nM

**Q.** And the “% Kill” value ([5]; T47D, Table 13, + 15 nM PRL)?
**A.** 100%

**Q.** And the IC50 ([5]; T47D, Table 13, + 15 nM PRL, read-out: IC50)?
**A.** 3 nM

**Q.** And the “% Kill” value ([5]; T47D, Table 13, without PRL)?
**A.** 100%

**Q.** What about the IC50 ([5]; T47D, Table 13, without PRL, read-out: IC50) of the same molecule?
**A.** 1 nM

**Q.** What about the “% Kill” value ([5]; T47D, Table 19) of the same molecule?
**A.** 100%

**Q.** What about the IC50 ([5]; T47D, Table 19, read-out: IC50) of the same molecule?
**A.** 2 nM

B2: H1H6953N-DM1 (conjugate)
VH: EVQLLESGGGLVQPGGTLRLSCAASGFTFSAYAMSWVRQAPGKGLEWVSSINVRAGDTYYADSVKGRFTISRDNSKNTLFLLMNSLRAEDTAAYYCAKARYSSNWGFDFWGQGTLVTVSS
VL: DIVMTQSPDSLTVSLGARTTINCQSSQTILHSSNNHNYLAWYQQKPGLPPKLLIYWSSTRESGVPDRFSGSGSGTDFTLTISSLQAEDVAIYYCQQYSNTPYTFGQGTKLEIN
**Q.** How did the “% Kill” value ([1]; 293/PRLR, Table 11) turn out when B2 was run?
**A.** 95%

**Q.** And the IC50 [1, 12]?
**A.** 0.28 nM

**Q.** What about the IC50 ([1]; 293/hPRLR cells (PRLR 18× above background), read-out: IC50, cell viability) of the same molecule?
**A.** 0.43 nM

**Q.** And the “% Kill” value ([2]; Table 15)?
**A.** 80%

**Q.** What about the IC50 ([2]; Table 15) of the same molecule?
**A.** 100 nM

**Q.** And the “% Kill” value ([3]; MCF7, Table 12, 3 days)?
**A.** 55%

**Q.** And the IC50 ([3]; MCF7, Table 12, 3 days)?
**A.** 100 nM

**Q.** What about the IC50 ([3]; MCF7, Table 16) of the same molecule?
**A.** 82 nM

**Q.** What about the “% Kill” value ([4]; Table 12, 3 days) of the same molecule?
**A.** 76%

**Q.** And the IC50 ([4]; Table 12, 3 days)?
**A.** 0.29 nM

**Q.** What about the “% Kill” value ([4]; Table 17) of the same molecule?
**A.** 76%

**Q.** What about the IC50 ([4]; Table 17) of the same molecule?
**A.** 0.33 nM

**Q.** And the IC50 ([5]; T47D cells (PRLR 12× above background), 3 days, read-out: IC50, cell viability)?
**A.** 1.3 nM

**Q.** And the “% Kill” value ([5]; T47D, Table 12, 3 days)?
**A.** 79%

**Q.** What about the IC50 [5, 13] of the same molecule?
**A.** 1.64 nM

**Q.** And the “% Kill” value [6]?
**A.** 83%

**Q.** And the IC50 [6]?
**A.** 90 nM

**Q.** What about the IC50 [7] of the same molecule?
**A.** 0.33 nM

**Q.** What about the IC50 [8] of the same molecule?
**A.** 2.9 nM

**Q.** What about the IC50 [9] of the same molecule?
**A.** 80 nM

**Q.** And the “% Kill” value [10]?
**A.** 80%

**Q.** And the IC50 [10]?
**A.** 2.4 nM

**Q.** And the IC50 [11]?
**A.** 100 nM
